The target of test [1] is MRP1 variants (Homo sapiens, UniProt P33527). As to the kind of experiment: Vanadate-dependent nucleotide trapping by MRP1 variants in Sf9 membranes. The note with it: L0 peptide co-expressed with ΔMRP1.
The target of test [2] is T1, ΔMRP1 (Homo sapiens, UniProt P33527).
T1 construct: An N-terminally truncated MRP1 (amino acids 281-1531); made in house; host or cells: baculovirus-infected Sf9 cells, membrane vesicles
As to the kind of experiment: Restoration of ΔMRP1 transport activity by L0 peptides (vesicular LTC4 / NEM-GS uptake, Sf9 membranes). The format is biochemical. The method, then: The obtained pCLTRX-L0 vector was cloned to E. coli BL21 (DE3) cells, which in turn were grown in TYBG antibiotic broth (10 g tryptone, 10 g yeast extract, 4 g glucose, pH 7.2, 100 μg/ml ampicillin, 25 μg/ml kanamycine) at 37° C. When OD(600) exceeded 1.1 cells were pelleted by centrifugation, suspended in M9 medium, the incubated at 28° C. for 30 min. Afterwards, expression was induced by IPTG for 2 hours. When the induction was finished, cells were pelleted by centrifugation and the pellet was washed with 20% sacharose, then suspended in a solution comprising 20% agarose, 10 mM Tris and 0.1 μg/ml lysosyme (pH 7.2) and incubated for 30 min at 4° C. then sonicated. The lysed cells were pelleted by centrifugation (20000 g, 20 min). The so obtained lysate was used in the further experiments, for studying the restoration of the transport activity.
In order to correctly determine the transport function of the different MRP1 proteins, we estimated the relative amount of transport-competent inside-out vesicles in the Sf9 membrane preparations [Bakos É. et al, (1998), see above], and corrected the transport rates according to the relative MRP1 expression levels, as determined by immunoblotting.

Test [3] has as its system MDCKII-ΔMRP1 cells. Description: Immunolocalization of L0 co-expressed with ΔMRP1 in MDCKII monolayers (rescue to plasma membrane). The format is cell-based. The note with it: pool of puromycin resistant MDCKII-ΔMRP1 cells. The source says:
L0 was detected by indirect immunofluorescence with mAb R1 (green color, light signal in the lateral membrane). […] The arrow head indicates the position where the section was made. Nucleic acids were counterstained with propidium iodide (red signal).
For expression of MRP1 variants in MDCKII cells, the L0MDR1 chimera, ΔMRP1, and MRP1Δ(223-232) were inserted as blunt-end fragments into the retroviral vector pCMV-neo as described [Bakos É et al, (1998), see above]. For co-expression experiments the L0 fragment was cloned into the pBabe-Puro-CMV vector (kindly provided by Dr. J. Wijnholds, The Netherlands Cancer Institute, Amsterdam, The Netherlands). This vector was generated by cloning the blunt-ended HindIII fragment from pCMV-neo (containing the CMV early promoter) into the blunt-ended BamHI site of the pBabe-puro vector [Morgenstern J. P., and Land, H. (1990) Nucleic Acids Res. 18, 3587-3596]. Cells were retrovirally-transduced as described before [Evers, R. Kool, M., van Deemter, L., Janssen, H., Calafat, J., Oomen, L. C., Paulusma, C. C., Oude Elferink R. P., Baas, F., Schinkel, A. H., and Borst P. (1998) J. Clin Invest. 101, 1310-1319]. MDCKII cells stably transduced with the pBabe-Puro or pCMV-neo vector were selected for 4-6 days in medium containing puromycin (3 μg/ml) or for 7 days in medium containing G-418 (800 μg/ml), respectively. […]

Consider one molecule from patent US20030170730A1, “Assay method, peptides and reagent kits for testing mrp-specific inhibitors” (priority 2000, published 2003).

T1 sequence (P33527 281-1531, stated change not applied): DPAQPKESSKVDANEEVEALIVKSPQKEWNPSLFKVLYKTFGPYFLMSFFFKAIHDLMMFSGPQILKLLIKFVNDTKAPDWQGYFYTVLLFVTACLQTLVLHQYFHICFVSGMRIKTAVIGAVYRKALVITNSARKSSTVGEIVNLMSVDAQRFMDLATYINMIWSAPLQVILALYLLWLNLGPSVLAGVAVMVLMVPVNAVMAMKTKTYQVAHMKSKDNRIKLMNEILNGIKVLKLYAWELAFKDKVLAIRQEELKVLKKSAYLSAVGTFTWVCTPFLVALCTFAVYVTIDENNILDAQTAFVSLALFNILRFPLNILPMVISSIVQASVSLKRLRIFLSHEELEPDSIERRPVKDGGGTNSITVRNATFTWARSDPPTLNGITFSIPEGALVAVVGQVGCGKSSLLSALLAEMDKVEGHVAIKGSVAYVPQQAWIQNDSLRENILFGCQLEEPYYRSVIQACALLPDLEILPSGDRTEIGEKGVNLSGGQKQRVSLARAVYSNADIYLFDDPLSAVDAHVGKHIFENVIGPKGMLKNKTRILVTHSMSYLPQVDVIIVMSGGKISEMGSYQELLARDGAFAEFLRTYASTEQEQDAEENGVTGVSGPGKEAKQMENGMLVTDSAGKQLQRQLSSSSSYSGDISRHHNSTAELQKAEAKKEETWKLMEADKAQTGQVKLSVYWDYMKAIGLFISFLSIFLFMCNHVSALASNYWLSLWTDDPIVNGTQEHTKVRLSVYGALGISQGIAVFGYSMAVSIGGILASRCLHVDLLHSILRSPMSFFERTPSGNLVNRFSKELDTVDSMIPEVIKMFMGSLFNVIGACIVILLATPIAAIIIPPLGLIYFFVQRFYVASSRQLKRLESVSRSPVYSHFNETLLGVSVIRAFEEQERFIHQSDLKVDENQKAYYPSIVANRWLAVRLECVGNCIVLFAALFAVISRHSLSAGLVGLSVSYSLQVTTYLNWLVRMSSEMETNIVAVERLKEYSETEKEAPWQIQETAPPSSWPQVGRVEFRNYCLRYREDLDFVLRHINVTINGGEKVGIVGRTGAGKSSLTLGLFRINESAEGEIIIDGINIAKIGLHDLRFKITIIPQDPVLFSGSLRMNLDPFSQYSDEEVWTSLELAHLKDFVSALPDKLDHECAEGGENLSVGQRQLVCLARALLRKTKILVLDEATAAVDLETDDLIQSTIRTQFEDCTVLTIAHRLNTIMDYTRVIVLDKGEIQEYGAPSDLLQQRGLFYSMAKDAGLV

B1: L0: amino acids 204-281, representing the N-terminal linker region of MRP1, expressed as a separate peptide (protein, UniProt P33527 204-281, looked up, fragment)
chain: DPNPCPESSASFLSRITFWWITGLIVRGYRQPLEGSDLWSLNKEDTSEQVVPVLVKNWKKECAKTRKQPVKVVYSSKD
modifications: L0 linker region
notes: amino acids 204-281, representing the N-terminal linker region of MRP1, expressed as a separate peptide
Turning to B1, the “restoration of nucleotide trapping of ΔMRP1” value in test [1] is “the full activity was restored”. Also, the “uptake of LTC4 on co-expression with ΔMRP1” value in test [2] (at 50 nM LTC4, Sf9 vesicles) is on record as “about 90 % of MRP1”. In addition, the “uptake of NEM-GS on co-expression with ΔMRP1” value in test [2] (at 50 μM NEM-GS, Sf9 vesicles) is given as “about 40 % of MRP1”. In addition, in test [3], the “localization of L0 (mAb R1 staining)” value is recorded as “clear lateral plasma membrane staining”.
